Data reported in the nanobody polyreactivity screen of Harvey et al. (2022).

Test: yeast display, Sf9 membrane polyspecificity reagent, FACS + sequencing; frameworks hold sequencing errors
How it was run: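 Sorting gates, low and high (top ~1%), were placed on anti-HA fluorescence to track expression and on streptavidin fluorescence to track reagent binding. A clone's polyreactivity label is taken from the gate it came out of. The reagent was 10% biotinylated, detergent-solubilized Sf9 membrane, applied for 1 hour at 4 °C to galactose-induced yeast display cells.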

Sequence	polyreactivity (PSR sort gate)
QVQLVESGGGLVQAGGSLRLSCAASGYTFFYAMGWYRQAPGKERQLVAGISRAGRTKYADSVKGRFTISRDNAKNTVYLQMNSLKPEDTAVYYCAAYARVSSSRFDYWGQGTQVTVSS	high polyreactivity
QVQLVESGGGLVQAGGSLRLSCAASGYTFFYYAMGWYRQAPGKERELVATISGNGGRTYYADSVKGRFTISRDNAKKTVYLQMNSLKPEDTAVYYCAALLYIRSVGYDYWGQGTQVTVSS	low polyreactivity
QVQLVESGGGLVQAGGSLRLSCAASGYTFGEYAMGWYRQAPGKERELVATISLSDGSTNYADSVKGRFTISRDNAKNTVYLQMNSLKPEDTAVYYCATTVWYKKAPYPDGDYWGQGTQVTVSS	low polyreactivity
QVQLVESGGGLVQAGGSLRLSCAASGYTFGHYAMGWYRQAPGKERELVAVNTSGGSTNYADSVKGRFTISRDNAKNTVYLQMNSLKPEDTAVYDCAADLYFYYVWIRDYWGQGTQVTVSS	low polyreactivity
QVQLVESGGGLVQAGGSLRLSCAASGYTFGIYTLGWYRQAPGKERELVADISSTGTTKYADSVKGRFTISRDNAKYTVYLQMNSLKPEDTAVYYCAVRPFWYRMDYWGQGTQVTVSS	low polyreactivity
QVQLVESGGGLVQAGGSLRLSCAASGYTFGSYAMGWYRQAPGKERELVAAIRGSGGSTYYADSVKGRFTISRDNAKNTVYLQMNSLKPEDTAVYYCATSVRRGGRQLYNYWGQGTQVTVSS	high polyreactivity
QVQLVESGGGLVQAGGSLRLSCAASGYTFGSYAMGWYRQAPGKERELVAAISGGGSTNYADSVKGRFTISRDNAKNTVYLQMNSLKPEDTAVYYCAAYPYLYPLRFEEYDHWGQGTQVTVSS	low polyreactivity
QVQLVESGGGLVQAGGSLRLSCAASGYTFGTYAMGWYRQAPGKERELVAAITWRGGSTYYADSVKGRFTISRDNAKYTFYLQMNSLIPEDTAVYYCNADIKQRSDRYDYWGQGTQVTVSS	high polyreactivity
QVQLVESGGGLVQAGGSLRLSCAASGYTFGTYDMGWYRQAPGKERELVAAISIGGSTNYADSVKGRFTISRDNAKNTVYLQMNSLKREDTAVYYCAAEVNVGTLLLSVIVEDGDYWGQGTQVTVSS	low polyreactivity
QVQLVESGGGLVQAGGSLRLSCAASGYTFGTYDMGWYRQAPGKERELVAAISIGGSTNYADSVKGRFTISRDNEKNTVYLQMNSLKPVDTAVYYCAAEVNVGTLLLSVIVEDGDYWGQGTQVTVSS	low polyreactivity
QVQLVESGGGLVQAGGSLRLSCAASGYTFGVYVMGWYRQAPGKERELVAAISGSTYYAYSVKGRFTISRDNAKNTVYLQMNSLKPEDTAVYYCAAESYFFSPRTREKFDYWGQGTQVTVSS	low polyreactivity
QVQLVESGGGLVQAGGSLRLSCAASGYTFGYYTMGWYRQAPGKERELVASIDSGGGTNYADSVKGRFTISRDNAKNTVYLQMNSLKPEDTEVYYCAAEYPLYWVDDFESGWRYYYWGQGTQVTVSS	low polyreactivity
QVQLVESGGGLVQAGGSLRLSCAASGYTFIYYAMGWYRQAPGKERELVATISIDGSTNYADSVKGRFTISRDNAKYSVYLQMNSLKREDTAVYYCNRERYEDYDYWGQGTQVTVSS	high polyreactivity
QVQLVESGGGLVQAGGSLRLSCAASGYTFKTYAMGWYIQAPGKERELVAAISGSGGSTYYADSVKGRFTISRDNAKNTVYLQMNSLKPEDTEVYFCAATNWWGTEYDYWGQGTQVTVSS	high polyreactivity
QVQLVESGGGLVQAGGSLRLSCAASGYTFLANAMGWYRQAPGKERELVAAISSGGTTYYADSVKGRFTISRDNAKNTVYLQMNSLKPEDTAVYYCAAKDTTVFYYDDDYWGQGTQVTVSS	low polyreactivity
QVQLVESGGGLVQAGGSLRLSCAASGYTFLAYAMGWYRQAPGKERELVAAISSGGRTYYADSVKGRFTISRDNAKNTVYLQMHSLKREDTAVYYCAAYPLRYRQYWGFVYWGQGTQVTVSS	high polyreactivity
QVQLVESGGGLVQAGGSLRLSCAASGYTFLDYAMGWYRQAPGKERELVAAINSGGSTYYADSEKGRFTISRDNAKNTVYLQMNSLKPEDTAVYYCAVDPPYSYSLSRYGYWGQGTQVTVSS	low polyreactivity
QVQLVESGGGLVQAGGSLRLSCAASGYTFNKYAMGWYRQATGKGRELVATIRNGGNTYYADSVKGRFTISRDNAKITVYFQMNSLKPEDTAVYYCAATVRGVGYRYYYWGQGTQVTVSS	high polyreactivity
QVQLVESGGGLVQAGGSLRLSCAASGYTFPDYAMGWYRQAPGKERELVAAFRSGGGTNYADSVKGRFTISRDNAKNTVYLQMNSLKPEDTAVYYCAKEWAGGLYDYWGQGTQVTVSS	low polyreactivity
QVQLVESGGGLVQAGGSLRLSCAASGYTFPFYTMGWYRQAPGKERELVAAINSGGSTYYADSVKGRFTISRDNAKNTVYLQMNSLKPEDTAVYYCGAGRHSEDNYWGQGTQVTVSS	high polyreactivity
QVQLVESGGGLVQAGGSLRLSCAASGYTFPRYTMGWYRQAPGKERELVAAINWSGGSTYYADSVKGRFTISRDNAKNTVYLQMNSLKPEDTAVYYCNKAYVSRYDYWGQGTQVTVSS	high polyreactivity
QVQLVESGGGLVQAGGSLRLSCAASGYTFPTYAMGWYRQAPGKERELVAAISIDDGITYYADSVKGRFTISRDNAKNTVYLQMNSLKPEDTAVYYCAADVGIEYDYWGQGTQVTVSS	high polyreactivity

Sequence	polyreactivity (PSR sort gate)
QVQLVESGGGLVQAGGSLRLSCAASGYTFQWYDMGWYRQAPGKERELVASISWRGGSTYYADSVKGRFSISRDNATITVSLQMNSLKPEDTAVYYCAASLWPDYEYDYWGQGTQVTVSS	low polyreactivity
QVQLVESGGGLVQAGGSLRLSCAASGYTFRFNAMGWYRQAPGKEREFVAAIDFGGAGTYYADSVKGRFTISRDNAKNNVYLQMHSLKPEDTAVYYCNARDGVTSEFDYWGQGTQVTVSS	low polyreactivity
QVQLVESGGGLVQAGGSLRLSCAASGYTFRRYAMGWYRQAPGKERELVAAITSRGGSTYYADSVKGRFTISRDNAKNTVYLQMNSLKPEDTAVYYCAADASAYSVLTRDYWGQGTQVTVSS	high polyreactivity
QVQLVESGGGLVQAGGSLRLSCAASGYTFRRYAMGWYRQAPGKERELVAGITRTGNTNYADSVKGRFTISRDNAKNTVYLQMNSLKPEDTAVYYCARDLGGYKRLYDYWGQGTQVTVSS	high polyreactivity
QVQLVESGGGLVQAGGSLRLSCAASGYTFRSNTMGWYRQAPGKERELVAAISGRGSSTYYADSVKGRFTISRDNAKNTVYLQMNSLKPEDTAVYYCAAQSKYYQYYSWGQGNQVTVSS	high polyreactivity
QVQLVESGGGLVQAGGSLRLSCAASGYTFRSYAMGWYRQAPGKERELVAGIDGSGGTTYYADSVKGRFTISRDNAKNTVYLQMNSLKPEDTAVYYCAAEAYKHGVWDYDYWGQGTQATVSS	low polyreactivity
QVQLVESGGGLVQAGGSLRLSCAASGYTFRVYTMGWYRQAPGKERELVAAISRRGSRTYYADSVKGRFTISRDNAKNSVYLQMNSLKPEDTAVYYCAAGIPYPDDYWGQGTQVTVSS	high polyreactivity
QVQLVESGGGLVQAGGSLRLSCAASGYTFRVYTMGWYRQAPGKERELVAAISRRGSRTYYADSVKGRFTISRDNAKNTVYLQMNSLKPEDTAVYYCAAGIPYPDDYWGQGTQVTVSS	high polyreactivity
QVQLVESGGGLVQAGGSLRLSCAASGYTFRYYAMGGYRQAPGKERELVADINSGDITNYADSVKGRFTISRDNAKNTVYLQMNSQKPEDTAVYYCAPRTFSLYDYWGQGTQVTVSS	low polyreactivity
QVQLVESGGGLVQAGGSLRLSCAASGYTFRYYAMGWYRQAPGKERELVAAINWSGGSTYYADSVKGRFTISRDNAKNTVYLQMNSLKPEDTAVYYCAADPDGDLDIDYDYWGQGTQVTVSS	low polyreactivity
QVQLVESGGGLVQAGGSLRLSCAASGYTFRYYAMGWYRQAPGKERELVARITGRAGSTYYADSVKGRFTISRDNAKNTVYLQMNSLKPEDTAVYYCAASIREGFYWGQGTQVTVSS	high polyreactivity
QVQLVESGGGLVQAGGSLRLSCAASGYTFSGYAMGWYRQAPGKERELVAAISGSSTRTYYADSVKGRFTITRDYAKNTVYFQMNSLKPEDTAVYYCAARFRHGGPYKYGYWGHGTQVTVSS	high polyreactivity
QVQLVESGGGLVQAGGSLRLSCAASGYTFSHYAMGWYRQAPGKERELVAGITWSGGSTYYADSVKGRFTISRENSKNTVYLQMNSLKPEDTSVYYCAAKYYWYYSYSGIPLFDYWGQGTQVTVSS	low polyreactivity
QVQLVESGGGLVQAGGSLRLSCAASGYTFSRYAMGLYRQAPGKERELVAAISHSAGRTYYADSVKGRFTISRDNAKNTVYLKMNSLKPEDTAVYYCATVLYSVPRYNYWGQGSQVTVSS	high polyreactivity
QVQLVESGGGLVQAGGSLRLSCAASGYTFSRYAMGWYRQAPGKERELVAAITGRGGSTYYADSVKGRFTISRDNAKNTVYLQMNSLKPEDTAVYYCAAPFGWRPLPISKVTSDYWGQGTQVTVSS	high polyreactivity
QVQLVESGGGLVQAGGSLRLSCAASGYTFSYYAMGWYRQAPGKERELVAAISWSGGSTYYADSVKGRFTISRDNAKNTVYLQMNSLKPEDTAFYYCAAKPWRGTLMRYGYWGQGTQVTVSS	high polyreactivity
QVQLVESGGGLVQAGGSLRLSCAASGYTFTIYAMGWYRQAPGKERELVAAITGRGGRTNYADSVKGRFTISRDNAKNTVYLQMNSLKPEDTAVYYCAKGGRSSSPRYRFDYWGQGTQVTVSS	high polyreactivity
QVQLVESGGGLVQAGGSLRLSCAASGYTFWDYAMGWYRQAPGKEREFVAGISFSDGGTYYADSVKGRFTITRDNAKNTVYLQMNSLKPEDTAVYYCAATYPYSWVYSGYYYWGQGTQVTVSS	low polyreactivity
QVQLVESGGGLVQAGGSLRLSCAASGYTFWFYAMGWYRQAPGKEREFVATISRSGGSTYYADSVKGRFTISRDNAKNTVYLQMNSLKPEDTAVYYCNARGPRSHRYDYWGQGTQVTVSS	high polyreactivity
QVQLVESGGGLVQAGGSLRLSCAASGYTFWQYAMGWYRQAPGKERELVATITSRGGSTYYADSVKGRFTISRDNAKNTVYLQMNSLKPEDTAVYYCNARRRYSTRRSDYWGQGTQVTVSS	high polyreactivity
QVQLVESGGGLVQAGGSLRLSCAASGYTFYANAMGWYRQAPGKEREFVASITWSGGSTYYADSVKGRFTISRDNAKNTVYLQMNSLKPEDTAVYYCADESWFKYDYWGQGTQVTVSS	low polyreactivity
